Measured values reported in publication doi:10.1101/870071 (bioRxiv, 2019).

B1: His-Bem1p (natural protein, yeast, UniProt P29366 1-551, looked up)
chain: MLKNFKLSKRDSNGSKGRITSADISTPSHDNGSVIKHIKTVPVRYLSSSSTPVKSQRDSSPKNRHNSKDITSPEKVIKAKYSYQAQTSKELSFMEGEFFYVSGDEKDWYKASNPSTGKEGVVPKTYFEVFDRTKPSSVNGSNSSSRKVTNDSLNMGSLYAIVLYDFKAEKADELTTYVGENLFICAHHNCEWFIAKPIGRLGGPGLVPVGFVSIIDIATGYATGNDVIEDIKSVNLPTVQEWKSNIARYKASNISLGSVEQQQQQSITKPQNKSAKLVDGELLVKASVESFGLEDEKYWFLVCCELSNGKTRQLKRYYQDFYDLQVQLLDAFPAEAGKLRDAGGQWSKRIMPYIPGPVPYVTNSITKKRKEDLNIYVADLVNLPDYISRSEMVHSLFVVLNNGFDREFERDENQNNIKTLQENDTATFATASQTSNFASTNQDNTLTGEDLKLNKKLSDLSLSGSKQAPAQSTSGLKTTKIKFYYKDDIFALMLKGDTTYKELRSKIAPRIDTDNFKLQTKLFDGSGEEIKTDSQVSNIIQAKLKISVHDI
B2: His-GIV-CT (C-terminus of GIV/Girdin), wild type (domain or fragment)
chain: SETLESRHHKIKTGSPGSEVVTLQQFLEESNKLTSVQIKSSSQENLLDEVMKSLSVSSDFLGKDKPVSCGLARSVSGKTPGDFYDRRTTKPEFLRPGPRKTEDTYFISSAGKPTPGTQGKIKLVKESSLSRQSKDSNPYATLPRASSVISTAEGTTRRTSIHDFLTKDSRLPISVDSPPAAADSNTTAASNVDKVQESRNSKSRSREQQSS

Tests used:
GST-Exo70p (yeast Exo70) = GST-Exo70p (yeast Exo70) (yeast, UniProt P19658 1-623); assay: pull-down
Sequence of GST-Exo70p (yeast Exo70) (P19658 whole entry): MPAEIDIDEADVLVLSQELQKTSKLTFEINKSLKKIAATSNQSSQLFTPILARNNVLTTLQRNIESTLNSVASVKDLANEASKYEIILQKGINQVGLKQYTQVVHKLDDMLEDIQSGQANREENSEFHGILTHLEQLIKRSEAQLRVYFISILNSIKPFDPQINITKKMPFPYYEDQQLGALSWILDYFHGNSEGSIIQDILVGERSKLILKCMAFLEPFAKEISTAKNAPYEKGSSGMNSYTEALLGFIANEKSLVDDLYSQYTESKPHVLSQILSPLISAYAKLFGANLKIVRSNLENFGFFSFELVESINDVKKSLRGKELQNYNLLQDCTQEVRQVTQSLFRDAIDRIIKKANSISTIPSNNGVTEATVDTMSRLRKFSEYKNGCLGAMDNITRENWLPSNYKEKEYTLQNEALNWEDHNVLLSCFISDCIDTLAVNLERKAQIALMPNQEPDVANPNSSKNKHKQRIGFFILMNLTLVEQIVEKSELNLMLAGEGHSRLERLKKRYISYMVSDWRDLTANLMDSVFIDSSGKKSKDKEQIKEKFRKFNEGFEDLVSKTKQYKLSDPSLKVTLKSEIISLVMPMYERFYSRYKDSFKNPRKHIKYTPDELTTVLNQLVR

GST-hExo70 (human Exo70) = GST-hExo70 (human Exo70) (human, UniProt Q9UPT5 1-735); assay: pull-down
Sequence of GST-hExo70 (human Exo70) (Q9UPT5 whole entry): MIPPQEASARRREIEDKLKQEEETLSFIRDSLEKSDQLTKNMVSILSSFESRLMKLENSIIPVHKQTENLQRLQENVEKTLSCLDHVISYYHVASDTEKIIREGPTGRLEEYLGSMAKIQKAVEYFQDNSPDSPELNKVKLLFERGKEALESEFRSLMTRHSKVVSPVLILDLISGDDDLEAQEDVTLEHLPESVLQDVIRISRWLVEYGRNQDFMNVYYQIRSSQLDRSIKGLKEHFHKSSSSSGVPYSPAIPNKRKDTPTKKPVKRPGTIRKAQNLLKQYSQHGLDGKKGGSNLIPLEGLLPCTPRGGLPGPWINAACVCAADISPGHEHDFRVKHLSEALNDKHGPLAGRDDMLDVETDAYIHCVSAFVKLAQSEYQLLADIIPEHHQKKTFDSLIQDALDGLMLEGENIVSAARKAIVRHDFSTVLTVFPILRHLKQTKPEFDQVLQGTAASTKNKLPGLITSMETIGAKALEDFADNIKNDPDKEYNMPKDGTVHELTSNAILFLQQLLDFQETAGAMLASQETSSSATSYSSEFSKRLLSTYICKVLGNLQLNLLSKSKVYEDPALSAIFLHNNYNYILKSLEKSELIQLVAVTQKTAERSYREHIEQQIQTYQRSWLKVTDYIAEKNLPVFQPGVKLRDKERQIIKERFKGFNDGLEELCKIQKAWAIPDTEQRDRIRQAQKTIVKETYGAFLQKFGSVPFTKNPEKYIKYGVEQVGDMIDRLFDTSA

Row | Binder | fold binding against human Exo70 (GST-Exo70p (yeast Exo70)) [fold] | fold binding against yeast Exo70p (GST-hExo70 (human Exo70)) [fold]
1 | B1 | 2 | –
2 | B2 | – | 4
